Substitutions are numbered along the chain they refer to.
B1: H1 L1.55 XENP34618 (antibody, V domains shown)
VH: QLQVQESGPGLVKPSETLSLTCTVSGGSISNSYFSWGWIRQPPGKGLEWIGSFYYGEKTYYNPSLKSRATISIDTSKSQFSLKLSSVTAADTAVYYCPRGPTMIRGVIDSWGQGTLVTVSS
VL: EIVLTQSPATLSLSPGERATLSCRASQSVRSYLAWYQQKPGQAPRLLIYDASNRATGIPARFSGSGSGTDFTLTISSLEPEDFAVYYCQQRSNWPITFGQGTKVEIK
B2: H1 L1.53 XENP34616 (antibody, V domains shown)
VH: B1 VH
VL: B1 VL with W94Y, I96P
B3: H1 L1.56 XENP34619 (antibody, V domains shown)
VH: B1 VH
VL: B1 VL with I96L
B4: H1 L1.60 XENP34623 (antibody, V domains shown)
VH: B1 VH
VL: B1 VL with I96P, Q100P
B5: H1 L1.46 XENP34609 (antibody, V domains shown)
VH: B1 VH
VL: B1 VL with N93S, I96P
B6: H1 L1.47 XENP34610 (antibody, V domains shown)
VH: B1 VH
VL: B1 VL with N93Q, I96P
B7: H1 L1.59 XENP34622 (antibody, V domains shown)
VH: B1 VH
VL: B1 VL with I96P, Q100G
B8: H1 L1.61 XENP34624 (antibody, V domains shown)
VH: B1 VH
VL: B1 VL with I96P, V104L
B9: H1 L1.45 XENP34608 (antibody, V domains shown)
VH: B1 VH
VL: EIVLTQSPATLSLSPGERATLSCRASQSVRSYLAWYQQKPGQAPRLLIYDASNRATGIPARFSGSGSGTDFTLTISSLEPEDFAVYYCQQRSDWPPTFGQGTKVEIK
B10: H1.1 L1 XENP34288 (antibody, V domains shown)
VH: B1 VH with M103V
VL: B1 VL with I96P
B11: H1 L1 XENP34287 (antibody, V domains shown)
VH: B1 VH
VL: B1 VL with I96P
B12: H1.21 L1 XENP35103 (antibody, V domains shown)
VH: B1 VH with Y33A
VL: B1 VL with I96P
B13: XENP37818 TBRII-A_H1.190_L1.53 (antibody, V domains shown)
VH: B1 VH with N31S, E57G, S78N, P98A, M103T
VL: B1 VL with W94Y, I96P
B14: TBRII-A_H1.29_L1 (antibody, V domains shown)
VH: B1 VH with S35T
VL: B1 VL with I96P
B15: TBRII-A_H1.36_L1 (antibody, V domains shown)
VH: B1 VH with G37S
VL: B1 VL with I96P
B16: XENP37817 TBRII-A_H1.272_L1 (antibody, V domains shown)
VH: B1 VH with N31S, Y54N, E57G, S78N, P98A, M103T
VL: B1 VL with I96P
B17: XENP37813 TBRII-A_H1.270_L1 (antibody, V domains shown)
VH: B1 VH with N31S, Y54N, E57G, S78N, P98A, M103L
VL: B1 VL with I96P
B18: TBRII-A_H1.30_L1 (antibody, V domains shown)
VH: B1 VH with S35Y
VL: B1 VL with I96P
B19: XENP37814 TBRII-A_H1.189_L1.53 (antibody, V domains shown)
VH: B1 VH with N31S, E57G, S78N, P98A, M103L
VL: B1 VL with W94Y, I96P
B20: XENP34306 H1.1 L1 (antibody, V domains shown)
VH: B1 VH with M103V
VL: B1 VL with I96P
B21: XENP34305 H1 L1 (antibody, V domains shown)
VH: B1 VH
VL: B1 VL with I96P
B22: XENP35119 H1.21 L1 (antibody, V domains shown)
VH: B1 VH with Y33A
VL: B1 VL with I96P
B23: XENP35123 H1.36 L1 (antibody, V domains shown)
VH: B1 VH with G37S
VL: B1 VL with I96P
B24: XENP35125 H1.51 L1 (antibody, V domains shown)
VH: B1 VH with Y54N
VL: B1 VL with I96P
B25: XENP35120 H1.29 L1 (antibody, V domains shown)
VH: B1 VH with S35T
VL: B1 VL with I96P
B26: XENP35121 H1.30 L1 (antibody, V domains shown)
VH: B1 VH with S35Y
VL: B1 VL with I96P
B27: XENP35126 H1.56 L1 (antibody, V domains shown)
VH: B1 VH with E57G
VL: B1 VL with I96P
B28: XENP35128 H1.50 L1 (antibody, V domains shown)
VH: B1 VH with Y54K
VL: B1 VL with I96P
B29: XENP35127 H1.48 L1 (antibody, V domains shown)
VH: B1 VH with Y54D
VL: B1 VL with I96P
B30: XENP35122 H1.33 L1 (antibody, V domains shown)
VH: B1 VH with G37A
VL: B1 VL with I96P
B31: XENP35124 H1.37 L1 (antibody, V domains shown)
VH: B1 VH with I39V
VL: B1 VL with I96P
B32: XENP37385 – αCD5 (Cd5-A) x αTGFßRII (bispecific antibody)
heavy: EVQLKESGAELVRPGGSVKISCKGSGYTFTNFAIHWVKQSHIKTLEWIGLISTSSGDVSYNQKFKDKATMTVDKSSSTAYMELARLTSEDSAIYYCARHYGANNYFDYWGQGTLVTVSSASTKGPSVFPLAPSSKSTSGGTAALGCLVKDYFPEPVTVSWNSGALTSGVHTFPAVLQSSGLYSLSSVVTVPSSSLGTQTYICNVNHKPSDTKVDKKVEPKSCDKTHTCPPCPAPPVAGPSVFLFPPKPKDTLMISRTPEVTCVVVDVKHEDPEVKFNWYVDGVEVHNAKTKPREEEYNSTYRVVSVLTVLHQDWLNGKEYKCKVSNKALPAPIEKTISKAKGQPREPQVYTLPPSREEMTKNQVSLTCDVSGFYPSDIAVEWESDGQPENNYKTTPPVLDSDGSFFLYSKLTVDKSRWEQGDVFSCSVMHEALHNHYTQKSLSLSPGK
scFv-Fc: QLQVQESGPGLVKPSETLSLTCTVSGGSISNSYFSWGWIRQPPGKGLEWIGSFYYGEKTYYNPSLKSRATISIDTSKSQFSLKLSSVTAADTAVYYCPRGPTVIRGVIDSWGQGTLVTVSSGKPGSGKPGSGKPGSGKPGSEIVLTQSPATLSLSPGERATLSCRASQSVRSYLAWYQQKPGQAPRLLIYDASNRATGIPARFSGSGSGTDFTLTISSLEPEDFAVYYCQQRSNWPPTFGQGTKVEIKEPKSSDKTHTCPPCPAPPVAGPSVFLFPPKPKDTLMISRTPEVTCVVVDVKHEDPEVKFNWYVDGVEVHNAKTKPREEQYNSTYRVVSVLTVLHQDWLNGKEYKCKVSNKALPAPIEKTISKAKGQPREPQVYTLPPSREQMTKNQVKLTCLVKGFYPSDIAVEWESNGQPENNYKTTPPVLDSDGSFFLYSKLTVDKSRWQQGNVFSCSVMHEALHNHYTQKSLSLSPGK
light: EIVLTQSPTIMSASPGEQVTMTCRTNSSVSSSYLHWYQQKSGASPKLWIYGTSNLASGVPTRFSGSGSGTSYSLTISSVEAGDAATYFCQQYSGYPLTFGGGTKVEIKRTVAAPSVFIFPPSDEQLKSGTASVVCLLNNFYPREAKVQWKVDNALQSGNSQESVTEQDSKDSTYSLSSTLTLSKADYEKHKVYACEVTHQGLSSPVTKSFNRGEC
B33: XENP37388 – αCD5 (Cd5-B) x αTGFßRII (bispecific antibody)
heavy: QVTLKESGAELVRPGASVKLSCKASGYSFTSYWMNWVKQRPGQGLEWIGMIHPSDSETRLNQKFKDKATLTVDKSSSTAYMQLSSPTSEDSAVYYCARWGDHDDAMDFWGQGTMVTVSSASTKGPSVFPLAPSSKSTSGGTAALGCLVKDYFPEPVTVSWNSGALTSGVHTFPAVLQSSGLYSLSSVVTVPSSSLGTQTYICNVNHKPSDTKVDKKVEPKSCDKTHTCPPCPAPPVAGPSVFLFPPKPKDTLMISRTPEVTCVVVDVKHEDPEVKFNWYVDGVEVHNAKTKPREEEYNSTYRVVSVLTVLHQDWLNGKEYKCKVSNKALPAPIEKTISKAKGQPREPQVYTLPPSREEMTKNQVSLTCDVSGFYPSDIAVEWESDGQPENNYKTTPPVLDSDGSFFLYSKLTVDKSRWEQGDVFSCSVMHEALHNHYTQKSLSLSPGK
scFv-Fc: B32 scFv-Fc
light: DIVLTQSPASLSASVGESVTITCRPSENIYGYFAWYQQRQGKSPQLLVYNAKTLAEGVPSRFSGSGSGTHFSLKINSLQPEDFGTYYCQHHYGTPFTFGPGTKVDIKRTVAAPSVFIFPPSDEQLKSGTASVVCLLNNFYPREAKVQWKVDNALQSGNSQESVTEQDSKDSTYSLSSTLTLSKADYEKHKVYACEVTHQGLSSPVTKSFNRGEC

The binders below were run against T1, human TGFßRII (antigen of the Octet experiments) (human, UniProt P37173 23-166) (assay: BLI (Octet)).
T1 sequence (P37173 23-166): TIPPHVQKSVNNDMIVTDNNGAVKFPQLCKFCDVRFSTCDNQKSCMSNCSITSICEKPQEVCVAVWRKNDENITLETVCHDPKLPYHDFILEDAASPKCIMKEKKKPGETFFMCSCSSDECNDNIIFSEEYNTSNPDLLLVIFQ

Kd	Binder
38 nM	B1
0.596 nM	B2
0.001 nM	B3
0.888 nM	B4
0.666 nM	B5
0.296 nM	B6
0.311 nM	B7
0.642 nM	B8
0.604 nM	B9

Target: T1, human TGFßRII (antigen of the Octet …)
Experiment: BLI (Octet)
Remark: another data set of the same source

Kd	Binder
0.352 nM	B10
0.112 nM	B11
0.374 nM	B12

Each binder was assayed against T1, human TGFßRII (antigen of the Octet …) (assay: not given).

Kd	Binder
109 nM	B13
4.2 nM	B14
3.5 nM	B15
58.2 nM	B16
31.6 nM	B17
14 nM	B18
58.9 nM	B19

These binders were tested against T1, human TGFßRII (antigen of the Octet …) (assay: Octet).

Kd	Binder
4.02 nM	B20
2.92 nM	B21
2.79 nM	B22
5.1 nM	B23
23 nM	B24
4.6 nM	B25
10.3 nM	B26
3.36 nM	B27
31.4 nM	B28
35 nM	B29
3.42 nM	B30
2.63 nM	B31

What follows are binders tested against Cyno (cynomolgus monkey) (assay: Octet).

Kd	Binder
11.3 nM	B32
0.74 nM	B33
